The results in this text go back to PMC9249733 (Nature Communications, 2022).

Positions count from the first letter of the chain named.

Assay [1] addresses T1, biotinylated hepatocyte growth factor receptor (HGFR) (Homo sapiens (assumed; species not …, UniProt P08581, biotin).
T1 construct: hepatocyte growth factor receptor (c-Met, tyrosine-protein kinase Met); bought biotinylated protein; The library sorting and the scFab measurements on yeast used another construct (extracellular domain as Fc fusion, Acro Biosciences MET-H5256); also called c-Met; tyrosine-protein kinase Met; source: bought: Sino Biological 10692-H27H-B
Briefly: flow cytometry of antibody-coated beads; IgG (0.076 ug/mL) captured on Protein A Dynabeads overnight; biotinylated HGFR in PBSB at a range of concentrations at 10x molar excess, 3 h, room temperature; detected with streptavidin-AF647; median fluorescence. To be noted: both partners purified. For orientation: In flow cytometry, cells or beads pass a laser one at a time.

Assay [2] addresses T1, biotinylated hepatocyte growth factor …. Briefly: flow cytometry of antibody-coated beads; single point; IgG (15 ug/mL) captured on Protein A Dynabeads overnight at 4 C; 1 nM biotinylated HGFR or 0.1 mg/mL biotinylated ovalbumin in PBSB, 3 h, room temperature; streptavidin-AF647; scores normalised between emibetuzumab (high) and elotuzumab (low). The following applies: both partners purified.

T1 sequence (P08581 25-932): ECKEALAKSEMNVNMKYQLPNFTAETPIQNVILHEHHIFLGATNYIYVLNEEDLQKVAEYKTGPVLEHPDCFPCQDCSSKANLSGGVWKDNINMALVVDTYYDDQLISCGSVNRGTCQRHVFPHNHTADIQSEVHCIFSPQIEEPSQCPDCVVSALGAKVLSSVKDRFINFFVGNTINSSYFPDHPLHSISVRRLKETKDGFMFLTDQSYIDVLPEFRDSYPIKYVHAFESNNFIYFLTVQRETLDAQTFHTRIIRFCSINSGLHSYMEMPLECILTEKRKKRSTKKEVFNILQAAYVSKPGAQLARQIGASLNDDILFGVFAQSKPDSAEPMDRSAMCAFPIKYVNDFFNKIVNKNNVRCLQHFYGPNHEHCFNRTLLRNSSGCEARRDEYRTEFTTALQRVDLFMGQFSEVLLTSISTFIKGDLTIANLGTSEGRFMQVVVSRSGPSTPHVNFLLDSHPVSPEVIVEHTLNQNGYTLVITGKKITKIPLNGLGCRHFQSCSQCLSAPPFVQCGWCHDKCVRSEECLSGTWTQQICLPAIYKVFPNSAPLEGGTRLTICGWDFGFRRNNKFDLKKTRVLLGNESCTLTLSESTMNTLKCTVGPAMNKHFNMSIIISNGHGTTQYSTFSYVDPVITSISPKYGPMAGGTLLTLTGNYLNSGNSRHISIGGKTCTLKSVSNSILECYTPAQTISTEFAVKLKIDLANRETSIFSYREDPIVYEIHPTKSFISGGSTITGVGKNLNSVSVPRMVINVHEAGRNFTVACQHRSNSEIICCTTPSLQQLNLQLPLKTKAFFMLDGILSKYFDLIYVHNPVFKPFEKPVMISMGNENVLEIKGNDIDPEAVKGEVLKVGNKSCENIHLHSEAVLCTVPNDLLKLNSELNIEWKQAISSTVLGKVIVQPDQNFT

B1: emibetuzumab (wild type), soluble IgG1 (antibody, V domains shown)
VH: QVQLVQSGAEVKKPGASVKVSCKASGYTFTDYYMHWVRQAPGQGLEWMGRVNPNRRGTTYNQKFEGRVTMTTDTSTSTAYMELRSLRSDDTAVYYCARANWLDYWGQGTTVTVSS
VL: DIQMTQSPSSLSASVGDRVTITCSVSSSVSSIYLHWYQQKPGKAPKLLIYSTSNLASGVPSRFSGSGSGTDFTLTISSLQPEDFATYYCQVYSGYPLTFGGGTKVEIK
By EC50 is commonly meant the concentration giving half of the maximal effect. A low value points to a more potent agent. B1 gave an EC50 in assay [1] of 4.4 nM.

B2: EM2, emibetuzumab variant, soluble IgG1 (antibody, V domains shown)
VH: B1 VH with R55G, A99S, W101L, D103E, Y104D
VL: B1 VL
B2: the EC50 in assay [1] worked out at 2.4 nM. Moreover, the “antigen binding at 1 nM HGFR relative to wild type” value in assay [2] is 1.28 x of wild type.

B3: EM1, emibetuzumab variant, soluble IgG1 (antibody, V domains shown)
VH: B1 VH with R55G, A99S, W101L, Y104D
VL: B1 VL
B3 gave a concentration for a half-maximal effect (EC50) in assay [1] of 2.6 nM. Besides, the “antigen binding at 1 nM HGFR relative to wild type” value in assay [2] was 1.2 x of wild type.
